From PMC6965139, “Crystal structures of fukutin-related protein (FKRP), a ribitol-phosphate transferase related to muscular dystrophy” (Nature Communications, 2020)
Numbering of substitutions follows the chain as printed. Each block holds one molecule with its values, some of them ahead of it.

Tests used:
[1] = biological target: T1, sFKRP (secreted type, His/Myc, WT) (Homo sapiens, UniProt Q9H9S5); assay: ribitol-phosphate transfer, HPLC and MALDI-TOF MS; type: biochemical; conditions: 200 uM CDP-Rbo, 40 uM RboP-(phospho-)core M3 peptide, 10 mM MnCl2 and MgCl2, pH 6.5, 310 K; enzyme on anti-Myc agarose
T1 construct: gene FKRP; Asn33 to C-terminus in ss1-His/Myc-pcDNA3.1; secreted from HEK293T; immunoprecipitated on anti-c-Myc agarose; tags kept
T1 sequence (Q9H9S5 33-495): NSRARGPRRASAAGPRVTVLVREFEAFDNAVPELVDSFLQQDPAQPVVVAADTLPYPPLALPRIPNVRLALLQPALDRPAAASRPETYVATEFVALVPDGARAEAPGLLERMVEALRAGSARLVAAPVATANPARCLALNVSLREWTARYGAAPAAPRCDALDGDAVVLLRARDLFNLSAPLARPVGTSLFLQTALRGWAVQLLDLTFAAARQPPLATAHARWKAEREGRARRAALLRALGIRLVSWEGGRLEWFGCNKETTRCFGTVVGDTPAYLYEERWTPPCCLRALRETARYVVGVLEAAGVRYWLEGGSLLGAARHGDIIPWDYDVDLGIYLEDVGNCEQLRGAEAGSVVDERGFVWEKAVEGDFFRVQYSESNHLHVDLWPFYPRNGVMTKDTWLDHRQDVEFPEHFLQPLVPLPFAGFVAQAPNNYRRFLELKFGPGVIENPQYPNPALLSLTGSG

[2] = biological target: secreted type of FKRP Tyr88Phe mutant (Asn33 to the C-terminus, His/Myc) (human) (UniProt Q9H9S5)
[3] = biological target: secreted type of FKRP Ser221Arg mutant (Asn33 to the C-terminus, His/Myc) (human) (UniProt Q9H9S5)
[4] = biological target: secreted type of FKRP Leu276Ile mutant (Asn33 to the C-terminus, His/Myc) (human) (UniProt Q9H9S5)
[5] = biological target: the molecule itself; assay: crystal structure; sFKRP without substrates, Mg2+ and Ba2+ bound forms; four subunits in the asymmetrical unit; hanging-drop vapor diffusion at 293 K, PEG 4000, HEPES-NaOH pH 7.5; interfaces judged with ePISA

glycosyltransferase activity with CDP-Rbo and the RboP-(phospho-)core M3 peptide, relative to the wild-type enzyme (% of the wild-type enzyme) [2]: 20
B1: secreted type of FKRP Tyr88Phe mutant (Asn33 to the C-terminus, His/Myc) (enzyme)
chain: T1 sequence (Q9H9S5 33-495) with Y56F

glycosyltransferase activity with CDP-Rbo and the RboP-(phospho-)core M3 peptide, relative to the wild-type enzyme (% of the wild-type enzyme) [3]: 5
B2: secreted type of FKRP Ser221Arg mutant (Asn33 to the C-terminus, His/Myc) (enzyme)
chain: T1 sequence (Q9H9S5 33-495) with S189R

glycosyltransferase activity with CDP-Rbo and the RboP-(phospho-)core M3 peptide, relative to the wild-type enzyme (% of the wild-type enzyme) [4]: 50
B3: secreted type of FKRP Leu276Ile mutant (Asn33 to the C-terminus, His/Myc) (enzyme)
chain: T1 sequence (Q9H9S5 33-495) with L244I

Further lines, the molecule ahead of its results:

Molecule: Nc1ccn([C@@H]2O[C@H](COP(=O)(O)OP(=O)(O)OC[C@@H](O)[C@@H](O)[C@@H](O)CO)[C@@H](O)[C@H]2O)c(=O)n1 [CDP-Rbo]
ribitol-phosphate transfer, HPLC and MALDI-TOF MS [1]: Enzymatic activity of sFKRP with CDP-Rbo and the RboP-(phospho-)core M3 peptide

B4: soluble form of fukutin-related protein (sFKRP, residues 45 to C-terminus) (enzyme, human, UniProt Q9H9S5 45-495, looked up)
chain: AGPRVTVLVREFEAFDNAVPELVDSFLQQDPAQPVVVAADTLPYPPLALPRIPNVRLALLQPALDRPAAASRPETYVATEFVALVPDGARAEAPGLLERMVEALRAGSARLVAAPVATANPARCLALNVSLREWTARYGAAPAAPRCDALDGDAVVLLRARDLFNLSAPLARPVGTSLFLQTALRGWAVQLLDLTFAAARQPPLATAHARWKAEREGRARRAALLRALGIRLVSWEGGRLEWFGCNKETTRCFGTVVGDTPAYLYEERWTPPCCLRALRETARYVVGVLEAAGVRYWLEGGSLLGAARHGDIIPWDYDVDLGIYLEDVGNCEQLRGAEAGSVVDERGFVWEKAVEGDFFRVQYSESNHLHVDLWPFYPRNGVMTKDTWLDHRQDVEFPEHFLQPLVPLPFAGFVAQAPNNYRRFLELKFGPGVIENPQYPNPALLSLTGSG
notes: fukutin-related protein (FKRP), human, residues 45 to C-terminus, 451 amino acid residues in total; stem domain 45-287, catalytic domain 288-495; Sugar chains were removed by Endo H glycosidase before the last gel filtration; also called lumenal region of human FKRP; not shown: protein A, N-terminal, cleaved
stoichiometry N [5]: 4
